Data: article PMC4014808

Experiments:
L3MBTL2 = assay: ELISA; settings: ELISA: 20 mM Tris-HCl pH 7.5, 150 mM NaCl, 20 mM KCl, 0.02% IGEPAL, 1 mM DTT, 1 h at room temperature, 50 uL of 50 nM biotinylated DNA per well
MPG = assay: ELISA; settings: all C outside primers replaced by 5-formylcytosine (dfCTP in PCR); ELISA: 20 mM Tris-HCl pH 7.5, 150 mM NaCl, 20 mM KCl, 0.02% IGEPAL, 1 mM DTT, 1 h at room temperature; 50 uL of 50 nM biotinylated DNA per well

Substance	Kd (L3MBTL2)	Kd (MPG)	Kd (L3MBTL2; all C outside primers replaced by 5-formylcytosine (dfCTP in PCR))
Fgf15 promoter probe, C	0.0812 µM	–	–
Fgf15 promoter probe, 5fC	–	0.0134 µM	0.0371 µM
